Reference: patent publication US20230110287A1

Biological target: mouse (murine) NGF (mouse) (UniProt P01139)
Assay: SPR, purified antibody, beta muNGF, 39 C

mouse (murine) NGF (mouse), sequence (P01139 122-241 limits assumed): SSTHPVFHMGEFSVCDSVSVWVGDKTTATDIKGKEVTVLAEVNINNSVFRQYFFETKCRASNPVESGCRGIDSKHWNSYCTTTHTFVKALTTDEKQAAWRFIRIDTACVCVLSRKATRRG

chimeric αD11 (rat αD11 variable regions fused to canine constant chain regions) (antibody)
Kd: 0.905 pM | koff: 6.2e-06 s⁻¹ | kon: 6.86e+06 M⁻¹ s⁻¹
